Assay: yeast display, Sf9 membrane polyspecificity reagent, FACS + sequencing; frameworks hold sequencing errors
Outline: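 Galactose induction of a Saccharomyces cerevisiae BJ5465 synthetic nanobody display library ran 36–48 hours. The cells were then stained for 1 hour at 4 °C with 10% biotinylated, detergent-solubilized Sf9 membrane reagent, pulled down on streptavidin microbeads and FACS-sorted into low and high (top ~1%) gates on expression and reagent-binding fluorescence. Labels for polyreactivity follow the gate of origin.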

| Sequence | polyreactivity (PSR sort gate) |
| --- | --- |
| QVQLVESGGGLVQARGSLRLSCAATGRTFQIYAMGWYRQAPGKERELVAAISSGGRTNYADSVKGRFTISRDNAKNTVYLQMNSLKPEDTAVYYCAKRWARPGMDYWGQGTQVTVSS | high polyreactivity |
| QVQLVESGGGLVQARGSLRLSCASSGRTFYTYAMGWYRQAPGKERELVAAIRRVGSTNYADSVKGRFTISRDNAKNTGYLQMNSLKPEDTAVYYCAVRLVWPWQGYDYWGQGTQVTVSS | low polyreactivity |
| QVQLVESGGGLVQARGSLRLSCASSGSIFGWNAMGGYRQAPGKERELVAAISSVGSTYYADSVKGRFTISRDNAKNTVYLQMNSLKPEDTAVYYCAAPVIQITDVWYDAETYPDYDYWGEGTQVTVSS | low polyreactivity |
| QVQLVESGGGLVQARGSLRLSSAASGIIFYEYAMGCYRQAPGKERELVAAISDTGGSTYYADSVKGRFTISRDNAKNTVYLQMNSLKPEDTAVYYCAAEYLAYYSGYDYWGQGTQVTVSS | high polyreactivity |
| QVQLVESGGGLVQARGSLRLSSAPSGRTFTVYAMGWYRHARGKERELVAAIRRTGSTYYADSVKGRFTISRDNAKNTVYLQMNSLKPEDTAVYYCYARPSTGWSIYGVDYWGQGTQGTVSS | low polyreactivity |
| QVQLVESGGGLVQARGSLRLSWAASGSTFQVYAMGWSRPAPGKERELVAAINYSGGSTYYADSVKGRFTISRDNAKNTVYVLMNSLKPEDTAVYYCAVKLRSRAGTSYGYWGQGTQVTVSS | high polyreactivity |
| QVQLVESGGGLVQARGSLRLTCAASGYIFSAYAMGWYRQAPGKERELVAAISRGGSTKYADSVKGRFTISRDNAKNTVSLQMNSVKPEDPAVYDCATVVYHRRPPRTGHEYWGQGTQVTVSS | high polyreactivity |
| QVQLVESGGGLVQARGTLRLSCAASGFTVFSYAMGWYRQAPGKESELVASISGSSSTYYADSVKGRFTISRDNAKNTVSVQMNSLTPDDTAVYYCAVDYHQAWPSGDYWFEYDYWGQGTQVTVSS | low polyreactivity |
| QVQLVESGGGLVQARRSLRLSCAASGITFVFYTMGWYRQAPGKERELVAAITSSGVRTSYADSVKGRFTISRDNAMNTVYLQMNSLKPEDTAVYYCAAKPTYVHKPGYNYWGQGTQVTVSS | high polyreactivity |
| QVQLVESGGGLVQARRSLRLSCAASGSTFVGNTMGWYRQAPGTERELVAAISRRGGGTNYADSVKGRFTISRDNAKNTVYLQMNSLKPEDTAVYYCAAKLVYPGKFNYWGQGTQVTVSS | high polyreactivity |
| QVQLVESGGGLVQARVSLRLSCPASGRIFARYALGSSRQAPGTEREFVAAISRGGSTKYADSEKGRFTISRDNAKNTVYLQMNSLKPEDTAVYYCARQLWGSAYGAYYAGDYWGQGTQVTVSS | low polyreactivity |
| QVQLVESGGGLVQARVSLRLSSAASGFIIYPYVMGWYRQAPGKERELVATIRTDGRTSYADSVKGRFTISRDNAKNTFYLQMNSLKPEDTAVYYCDARSPLYYIVPYELVQYDYWGLGTQVTVSS | high polyreactivity |
| QVQLVESGGGLVQAVGSLLLSCAASGSTFRYNAMGWYRQAPGKEREFVATISWTTGSSYYADSVKGRFTISRDNAKNTVYLQLNSLKPEDTAFYFCAADASLFSDFRDYDYWGQGTQVPVSS | low polyreactivity |
| QVQLVESGGGLVQAVGSLRLSCAASGFIFVRYAMGWYRQAPAKERELVAAISYSGGSTYYADSVKGRFTISRDNAKNTVYLQMNSLKPEDTAVYYCAAEYYSGGYRYYAEYGYWGQGTQVTVSS | high polyreactivity |
| QVQLVESGGGLVQAVGSLRLSCAASGFISKYYAMGWYRQAPGKERELVASISRDGSTSYADSVKGRFTISRDNAKNTVYLQMNSLKPEDTAVYYCAAPSYRTRYYYWGQGTQVTVSS | high polyreactivity |
| QVQLVESGGGLVQAVGSLRLSCAASGGIITSSAMGWYRLAPGKEWELVAAITGIGGRTYYADSVKGRFTISRDNAKNTVYLQMNSLKPEDTAVYYCKAAYTYVTAWYYYCGQGTQVTVSS | high polyreactivity |
| QVQLVESGGGLVQAVGSLRLSCAASGITFRWYTMGWYRQAPGKERELVASIRYGGGSTYYADSVKGRFTISRDNAKNTVYLQMNSLKPEDTAVYYCDAESAWTSPYDYWGQGTQVTVSS | high polyreactivity |
| QVQLVESGGGLVQAVGSLRLSCAASGLTFYSNAMGWYRQAPGKERELVATISQDGGRTYYADSVKGRFTISRDNAKNTVYLQMNSLKPEDTAVYYCAKDLYHTVGRYDYWGQGTQVTVSS | low polyreactivity |
| QVQLVESGGGLVQAVGSLRLSCAASGNIFHRNAMGWYRQAPGKEMELVAAISWSGGSTYYADSVKGRFTISRDNAKNTVYLQMNSLKPEDTAVYFCNAYYYYRFKPSHPGLRSYYWGQGTQVTVSS | high polyreactivity |
| QVQLVESGGGLVQAVGSLRLSCAASGRTFAFYTMGWYRPAHGKERELVAAINWSGTRTYYADSVKGRVTISRDKAKNTVYLQMNSLKPEDTAVYYCNVAFFSLSLRTLGVEYWGQGTQVTVST | high polyreactivity |
| QVQLVESGGGLVQAVGSLRLSCAASGSIFLLYDMGWYRPAPGKERELVAAITWSGGSTYYADSVKGRFTISRDNAKNTVYLQMNSLKPEDTAVYYCAADEPYPTAYEYWGQGTQVTVSS | low polyreactivity |
| QVQLVESGGGLVQAVGSLRLSCAASGSTFGKNAMGWYRQAPGKERELVAAISTSGTRSFYADSVKGRFTISRDTAKNTVYLQMNSLKPEDTAVYYCNAGRSSRAYYYWGQGTQVTVSS | high polyreactivity |

| Sequence | polyreactivity (PSR sort gate) |
| --- | --- |
| QVQLVESGGGLVQAVGSLRLSCAASGSTTFYAMGSYRQAPRKEWELVATISSSAGSTYYADSVKGRFTISRDNAKNTVFFQMNSLKPEDTAVFYCNAADAVSDYPDFHIYDYWGQGTQVTVSS | low polyreactivity |
| QVQLVESGGGLVQAVGSLRLSCAASGTFARYAMGWYRQGPGKERELVAAISSRGGSTYYADSVKGRFTISRDNAENTVYLQMNSLKPEDTAVYYCAAAHQYYPEYYYWGQGTQVTVSS | high polyreactivity |
| QVQLVESGGGLVQAVGSLRLSCAPSGSTFFKYARGWYRQAPGKERELVAVITRSGGTTYYADSVKGRFTISRDNAKNTVYLLMNSLKPEDTAVYYCAAGYYQYHRGYPTFTRYDYWGQGTQVTVSS | high polyreactivity |
| QVQLVESGGGLVQAVVSLRLSCAASGGTITSYAMVSSRQAPGKERELVAAITRSGGSTYYADSVKGRFTISRDNAKNTVYLQMKSLKPEDTAVYYCAARYWHSYGYWGQGTQVTVSS | high polyreactivity |
| QVQLVESGGGLVQEGGCLRLSCAASGSIFQGYAMGWYRQAPGKERELVAAITTDGDSTYYADSVKGRFTISRDNAKNTDYLEMNSLKPVDTAVYYCAADQDGRWEGSSEQGDSWGQGTQVTVSS | low polyreactivity |
| QVQLVESGGGLVQEGGILPLSCAASGFIFGDYVMGWYRQAPGKERELVAAINRNGGRTYYADSVKGRFTISRDYAKNTVYLQMNSLKPEDTAVFYCAAVFRSDRYHWYYYWGQGTQVTVSS | high polyreactivity |
| QVQLVESGGGLVQEGGILRLICAASGIIFPIYAMGWYRQAPGKERELVAAISQSGASTYYADSVKGRFTISRDNAKNTVYLALNSLKPEDTAVYYCAALNGDGPWQLSSEEFVYWGQGTQVTVSS | low polyreactivity |
| QVQLVESGGGLVQEGGRLRLSCAASGRIFWDNDMGWYRQAPGKERELVAAISRRGGSTSYADSVKGRFTISRDNAKNTVYLQMNSLKPEDTAVFYCNVRTRWTRVRRYDYWGQVTQVTVSS | high polyreactivity |
| QVQLVESGGGLVQEGGSLRISCAASGRTFIGYTIGWYRQAPRKERELFAAITWNGGRTYYADSVKGRFTISRDNAKNTVYLQMNSLKPEVTAVYYCAAPRRVVIGGGDYWGQGTQVTVSS | high polyreactivity |
| QVQLVESGGGLVQEGGSLRLICAASGRTVNTNALGLYRQAPGKEREFVAAISRSGGSTRYADSVKGRFTISRDNAKNTVYLQLNSLKPEDTAVYYCAAVRFRPRGNEYWGQGTQVTVSS | high polyreactivity |
| QVQLVESGGGLVQEGGSLRLICAASGSTFWANAMGWYRQEPGKERELVAAISVRGGNTYYADSVKGRFTISRDNAKNTVYLQMNSLKAEVTAVYYCAARPISWTSYYDYWGQGTQVTVSS | high polyreactivity |
| QVQLVESGGGLVQEGGSLRLNCAASGRTFFRNTMGWYRQAPRKDSELFATISSSGGSTYYADSVKGLFTISRDTAKNTVYLQMNSLKPEDTAVYYCAAAPSKWYYGYGYWGQGTQVTVSS | high polyreactivity |
| QVQLVESGGGLVQEGGSLRLSCAACGRTFSWYAMGWYRQAPGKDRELVAAITSGGSTYYADSVKGRFTISRDNAMNTVYLQMNSLKPEDTAVYYCAAQAYVEGVYRYDYWGQGTQVTVSS | low polyreactivity |
| QVQLVESGGGLVQEGGSLRLSCAASGFTFRYYTMGWYRQATGKERELVATITWSGGGTYYADSVKGRFTISRDNAKNTVYLQRISLKPVDSAVYYCTAGLFYKAQYGYWGKGTQVTVSS | high polyreactivity |
| QVQLVESGGGLVQEGGSLRLSCAASGFTFSLNTMGWYRQAPGKERELVAAINSGDSTYADSVKGRFTISRDNAKNTVYLQMNSLKPEDTAVYYCNADPDWWYPYNYWGQGTQVTVSS | low polyreactivity |
| QVQLVESGGGLVQEGGSLRLSCAASGIIFLWYTMGWYRQAPGKERELVATISWAGGSTYADSVKGRFTISRDNAKNTVYLPMNSLKPEDTAVYYCNTEIYVDIISDYGYWGQGTQVTVSS | low polyreactivity |
| QVQLVESGGGLVQEGGSLRLSCAASGITFGSYAMGWYRQAPGKERELVAAIDTSGDDTYYADSVKGRFTISRDNAKYTVYLQMNSLKPEDTAVYYCAADFPSAEVDYWGQGTQVTVSS | low polyreactivity |
| QVQLVESGGGLVQEGGSLRLSCAASGITFGTNAMGWYRQAPGKERELVAAIRRDGSTYYADSVKGRFTISRDNAKNTVYLQMNSLKPEDTAVYYCAATYWGRAYQGYRNLLYGYWGQGTQVTVSS | high polyreactivity |
| QVQLVESGGGLVQEGGSLRLSCAASGRIFYSNAMGWYRQAPGKERENVAAISWSGGGTYYADSVKGRFTISRDNAKNTVYLQMNSLKPEDTAVYYCAAVFGYSWAFEYDYWGQGTQVTVSS | low polyreactivity |
| QVQLVESGGGLVQEGGSLRLSCAASGRILYGYAMGWYRQAPGKERELVASITSSGGSKYADSVKGRFTISRDNAKNTVYLQMNSLKPEDTAVYYGATRRGPKWQWLTYGYWGQGTQVTVSS | low polyreactivity |
| QVQLVESGGGLVQEGGSLRLSCAASGRISYIYAMGWYRQAQGKERELVAAITRGGSTNYADSVKGCFTISRDNAKNTVYLQMNSLKPEDTAVYYCAARRRRSGGYEYDYWGQGTQVTVSS | high polyreactivity |

Reference: the nanobody polyreactivity screen of Harvey et al. (2022)
